The supplement of paper PMC12042874
± gives the uncertainty stated by the source.

Test: amyloid nucleation score (Sup35N fusion, yeast selection) (log enrichment); library NNK1; higher = more nucleation; inactive = no reads after selection
Summary of the method: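 The nucleation score, computed with DiMSum, is the log enrichment of output over input reads, centred on the mode score of non-aggregating sequences. Sequences with under 100 input reads were dropped. Reads were generated by Illumina sequencing of plasmid inserts from psi-negative yeast with Sup35N fused to peptides of 20 random codons, induced with 100 μM copper sulfate for 24 hours and grown 7 days at 30°C on medium lacking adenine and uracil.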

Substance | amyloid nucleation score
YMNNRLRWNRRHPYLSCFMS | 1.1 ± 0.94
YMNTFVIRSMHSLLNGYAFS | 0.429 ± 0.88
YMRRVLPRCHPIWNGFPFAR | 0.254 ± 0.93
YMTWL | 0.676 ± 0.44
YMVYILSVCDLRFLWTRSGG | -0.053 ± 0.49
YNCFMFAMFARSDSYMGIAS | 0.597 ± 0.26
YNDMVICSTTDGTLSYCRHF | 0.329 ± 0.26
YNEERGCSAC | -0.209 ± 0.33
YNFFGCVCDAPPPKCLVYFM | 7.596 ± 0.075
YNGGLRVMICLPECLLFSLI | -0.246 ± 0.49
YNGVCSNW | 0.13 ± 0.48
YNHIEFGWCLLVGFVMRKSR | 3.53 ± 0.12
YNIVMMDS | 0.108 ± 0.36
YNLRMDGVCGTVLRYVVEGR | -0.403 ± 1.4
YNMNFVSLVLGARRVYALSM | 3.62 ± 0.12
YNRIIYYCGVM | 0.782 ± 0.97
YNSRRAWDACCFGLVPLWEC | 2.08 ± 0.3
YPLFCNDHVGSSTLRRR | -0.065 ± 0.35
YPRPLWANRRPC | -0.151 ± 0.66
YPSIGLRVLLNYCDPTDTGA | 0.255 ± 1.2
YPVVHDM | -0.426 ± 0.56
YQKTNPMELWLPSL | inactive

Substance | amyloid nucleation score
YQQSCWVLYGTNLRYSNQSW | 1.74 ± 0.14
YQTGYGGCGYCRLVRGCVKV | -0.442 ± 0.33
YQVPKKVAATIGTAWARKRA | 0.279 ± 0.29
YRCNT | -0.244 ± 0.32
YRDFGGN | 0.076 ± 0.24
YRDTVGVYYRFIRGYWMCTW | -0.396 ± 0.42
YREEEILRVVNLTIFAGPGM | -0.55 ± 0.39
YRFQTSISNCYSAERDWGT | 1.37 ± 0.42
YRLDFGWTMH | 0.3 ± 0.31
YRSFAYEGSSRIGG | -0.022 ± 0.38
YRSSGWRNTSSRAVLCCLDE | -0.356 ± 0.38
YRVYRRLSV | 0.526 ± 0.45
YSARLLSERIKWHFTLMMND | 0.41 ± 0.36
YSESVCSLLPQYSPVHPLFT | 0.891 ± 0.97
YSGHWLVHLPCHHQVR | -0.028 ± 0.46
YSKIRNKSRFRNLSASFQRC | inactive
YSLSNVEGYYTYYYRT | -0.071 ± 0.28
YSLYTNSHVPAWHSPSISHG | -0.38 ± 0.82
YSMSRMIIKVKLQRHVMNYS | -0.88 ± 0.73
YSRISKRVSRKGQSRNCHSG | -0.413 ± 0.52
YSRYYVNVVWFLGKLRS | 0.012 ± 0.37
YSSGYLWFFIGTS | -1.38 ± 1.7

Substance | amyloid nucleation score
YSSICGSKLLRSGGCRGVGH | -0.083 ± 0.49
YSTSSEVEVDWLSVSKFVSI | 0.146 ± 0.27
YSVQIMSKNITWVKVCPASK | 5.19 ± 0.071
YSVSCSVF | -0.341 ± 0.31
YTAACTRSNCYMCPVSAVGW | 0.214 ± 0.86
YTFGWLLIKPHLRPAFKPHR | -1.75 ± 2.7
YTIGTRPTMLRLFGVLRWAG | 1.19 ± 0.43
YTMRGASRSTTDLLKIMIYM | -2.83 ± 2.4
YTPGSGVLRAGTADQLMRNF | 0.522 ± 0.63
YTRMICGSMMGGVMREMRIM | 0.739 ± 0.36
YTTVVQF | 0.064 ± 0.23
YVCDKFYGNAQCF | 0.644 ± 0.4
YVCGGWCVRVVRQVGYVNL | 0.421 ± 0.55
YVDDGMCSAICYSTVNNMSN | 8.666 ± 0.047
YVEFVFNIYSARFEWLLI | -0.463 ± 0.75
YVGIPQCGDLKRRPLA | 0.116 ± 1.1
YVGQGPGSLLTTGWVRYSL | -0.137 ± 0.6
YVHQRGNNTSAMLAWVLPRH | -0.766 ± 0.5
YVSAVGLWVVLYYMMRMCAS | inactive
YVSIYGQWVSSSCWTRRAYN | 0.415 ± 0.32
